B1: CPEB3 Ribozyme (parent)
chain: UAACAGGGGGCCACAGCAGAAGCGUUCACGUCGCAGCCCCUGUCAGAUUCUGGUGAAUCUGCGAAUUCUGCUGUAUAUCUC

Variants of: B1
Assay: self-cleavage, relative activity (ratio to wild type); higher = more cleavage; in vitro, sequencing
Method in brief: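 CPEB3 self-cleaving ribozyme mutant libraries were made by rounds of error-prone PCR, barcoded, and transcribed in vitro with T7 RNA polymerase for 5 hours at 37°C. Cleavage occurred during transcription and a 15 min DNase I step before EDTA stop. RNAs were reverse transcribed with template switching and Illumina-sequenced, with DNA sequencing mapping barcodes to variants. Relative activity is the variant's cleaved/total read fraction divided by wild type's (minimum 5 reads), averaged across three batches.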

Row | Variant | self-cleavage
1 | UAACAGGGGGCCGCAGCAGAAGCGUUCACGUCGCAGCCCCUGUCAGAUUCUGGUGAAUCUGCGAAUACUGCUGUAUAUCUC [A13G U67A] | 0.43
2 | UAACAGGGGGCCGCAGCAGAAGCGUUCACGUCGCAGCCCCUGUCAGAUUCUGGUGAAUCUGCGAAUCCUGCUGUAUAUCUC [A13G U67C] | 0.25
3 | UAACAGGGGGCCGCAACAGAAGCGUUCACGUCGCAGCCCCUGUCAGAUUCUGGUGAAUCUGCGAAUUCUGCUGUAUAUCUC [A13G G16A] | 0.24
4 | UAACAGGGGGCCGCAGCAGAAGCGUUCACGUCGCAGCCCCUGUCAGAUUCUGGUGAAUCUGCGAAUUCUGUUGUAUAUCUC [A13G C71U] | 0.39
5 | UAACAGGGGGCCGCAGCAGAAGCGUUCACGUCGCAGCCCCUGUCAGAUUCUGGUGAAUCUGCGAAUUCUGGUGUAUAUCUC [A13G C71G] | 0.12
6 | UAACAGGGGGCCGCAGCAGAAGCGUUCACGUCGCAGCCCCUGUCAGAUUCUGGUGAAUCUGCGAAUUCUGAUGUAUAUCUC [A13G C71A] | 0.25
7 | UAACAGGGGGCCGCAGCAGAAGCGUUCACGUCGCAGCCCCUGUCAAAUUCUGGUGAAUCUGCGAAUUCUGCUGUAUAUCUC [A13G G46A] | 0.21
8 | UAACAGGGGGCCGCAGCAGAAGCGUUCACGUCCCAGCCCCUGUCAGAUUCUGGUGAAUCUGCGAAUUCUGCUGUAUAUCUC [A13G G33C] | 0.17
9 | UAACAGGGGGCCGCAGCAGAAGCGUUCACGUCACAGCCCCUGUCAGAUUCUGGUGAAUCUGCGAAUUCUGCUGUAUAUCUC [A13G G33A] | 0.21
10 | UAACAGGGGGCCGCAGCAGAAGCGUUCACGUCUCAGCCCCUGUCAGAUUCUGGUGAAUCUGCGAAUUCUGCUGUAUAUCUC [A13G G33U] | 0.24
11 | UAACAGGGGGCCGCAGCAGAAGCGUUCACGUCGCAGCCCCUGUCAGAUUCUGGUGAAUCUGCGAAUUCUGCUGUAUAUUUC [A13G C79U] | 1.14
12 | UAACAGGGGGCCGCAGCAGAAGCGUUCACGUCGCAGCCCCUGUCAGAUUCUGGUGAAUCUGUGAAUUCUGCUGUAUAUCUC [A13G C62U] | 0.23
13 | UAACAGGGGGCCGCAGCAGAAGCGUUCACGUCGCAGCCCCUGUCAGAUUCUGGUGAAUCUGAGAAUUCUGCUGUAUAUCUC [A13G C62A] | 0.18
14 | UAACAGGGGGCCGCAGCAGAAGCGUUCACGUCGCAGCCCCUGUCAGAUUCUGGUGAAUCAGCGAAUUCUGCUGUAUAUCUC [A13G U60A] | 0.43
15 | UAACAGGGGGCCGCAGCAGAAGCGUUCACGUCGCAGCCCCUGUCAGAUUCUGGUGAAUCGGCGAAUUCUGCUGUAUAUCUC [A13G U60G] | 0.32
16 | UAACAGGGGGCCGCAGCAGAAGCGUUCACGUCGCAGCCCCUGUCAGAUUCUGGUGAAUCCGCGAAUUCUGCUGUAUAUCUC [A13G U60C] | 0.38
17 | UAACAGGGGGCCGCAGCAGAAGCGUUCACGUCGCAGCCCCUGUCAGAUUCUUGUGAAUCUGCGAAUUCUGCUGUAUAUCUC [A13G G52U] | 1.14

Row | Variant | self-cleavage
18 | UAACAGGGGGCCGCAGCAGAAGCGUUCACGUCGCAGCCCCUGUCAGAUUCUAGUGAAUCUGCGAAUUCUGCUGUAUAUCUC [A13G G52A] | 1.04
19 | UAACAGGGGGCCGCAGCAGAAGCGUUCACGUCGCAGCCCCUGUCAGAUUCUGGGGAAUCUGCGAAUUCUGCUGUAUAUCUC [A13G U54G] | 0.76
20 | UAACAGGGGGCCGCAGCAGAAGCGUUCACGUCGCAGCCCCUGUCAGAUUCUGGCGAAUCUGCGAAUUCUGCUGUAUAUCUC [A13G U54C] | 0.92
21 | UAACAGGGGGCCGCAGCAGAAGCGUUCACGUCGCAGCCCCUGUCAGAUUCUGGAGAAUCUGCGAAUUCUGCUGUAUAUCUC [A13G U54A] | 1.07
22 | UAACAGGGGGCCGCAGCAGAAGCGUUCACGUCGCAGCCCCUGUCAGAUUCUGGUGAAUCUGCGAAUUCUGCUAUAUAUCUC [A13G G73A] | 1.27
23 | UAACAGGGGGCCGCAGCAGAAGCGUUCACGUCGCAGCCCCUGUCAGAUUCUGGUGAAUCUGCGAAUUCUGCUCUAUAUCUC [A13G G73C] | 1.12
24 | UAACAGGGGGCCGCAGCAGAAGCGUUCACGUCGCAGCCCCUGUCAGAUUCUGGUGAAUCUGCGAAUUUUGCUGUAUAUCUC [A13G C68U] | 0.66
25 | UAACAGGGGGCCGCAGCAGAAGCGUUCACGUCGCAGCCCCUGUCAGAUCCUGGUGAAUCUGCGAAUUCUGCUGUAUAUCUC [A13G U49C] | 0.25
26 | UAACAGGGGGCCGCAGCAGAAGCGUUCACGUCGCAGCCCCUGUCAGAUACUGGUGAAUCUGCGAAUUCUGCUGUAUAUCUC [A13G U49A] | 0.41
27 | UAACAGGGGGCCGCAGCAGAAGCGUUCACGUCGCAGCCCCUGUCAGAUUCUGGUGAAUCUGCGAAGUCUGCUGUAUAUCUC [A13G U66G] | 0.31
28 | UAACAGGGGGCCGCAGCAGAAGCGUUCACGUCGCAGCCCCUGUCAGAUUCUGGUGAAUCUGCGAACUCUGCUGUAUAUCUC [A13G U66C] | 0.35
29 | UAACAGGGGGCCGCAGCAGAAGCGUUCACGUCGCAGCCCCUGUCAGAUUCUGGUGAAUCUGCGAAAUCUGCUGUAUAUCUC [A13G U66A] | 0.45
30 | UAACAGGGGGCCGCAGCAGAAGCAUUCACGUCGCAGCCCCUGUCAGAUUCUGGUGAAUCUGCGAAUUCUGCUGUAUAUCUC [A13G G24A] | 0.27
31 | UAACAGGGGGCCGCAGCAGAAGCGUUCACGUCGCAGCCCCUGUCAGAUUCUGGUGAAUCUGCGAAUUCUCCUGUAUAUCUC [A13G G70C] | 0.45
32 | UAACAGGGGGCCGCAGCAGAAGCGUUCACGUCGCAGCCCCUGUCAGAUUCUGGUGAAUCUGCGAAUUCUACUGUAUAUCUC [A13G G70A] | 0.26
33 | UAACAGGGGGCCGCAGCAGAAGCGUUCACGUCGCAGCCCCAGUCAGAUUCUGGUGAAUCUGCGAAUUCUGCUGUAUAUCUC [A13G U41A] | 0.27
34 | UAACAGGGGGCCGCAGCAGAAGCGUUCACGUCGCAGCCCCCGUCAGAUUCUGGUGAAUCUGCGAAUUCUGCUGUAUAUCUC [A13G U41C] | 0.79

From the RNAGym collection of RNA variant scans (doi:10.1093/nar/gkz1192)
